Measured values as given in publication PMC12854727.

The substances below were run against HKU1 isolate N1 (genotype A) RBD, wildtype, biotinylated (avi tag) (UniProt Q5MQD0) (assay: BLI). Settings: 100 nM TMPRSS2; area under the binding response curve normalised to human WT TMPRSS2, not to the mouse parent; parent: est. 19; read off a plot.

In the case of “S441A House Mouse TMPRSS2 ectodomain (DS mutation, SUMO, N249 glycan) S412N”, the response is reported as 38 % WT.

Same assay, conditions: 100 nM TMPRSS2; area under the binding response curve normalised to human WT TMPRSS2, not to the mouse parent; read off a plot

House Mouse TMPRSS2 ectodomain S441A showed a response of 19 % WT.

Same assay, conditions: 100 nM TMPRSS2; area under the binding response curve; Not activated: uncleaved S441A TMPRSS2; read off a plot

For “human TMPRSS2 ectodomain harboring S441, the DS mutation, SUMO and the N249 glycan (self-activating; wildtype of Figure 4C) (from UniProt O15393) S441A”, the percent of parent was 1.4 % WT.

Same assay, conditions: 100 nM TMPRSS2; area under the binding response curve; cleaved (activated by enterokinase); read off a plot

With “human TMPRSS2 ectodomain harboring S441, the DS mutation, SUMO and the N249 glycan (self-activating; wildtype of Figure 4C) (from UniProt O15393) S441A” the percent of parent was 100 % WT.

Same assay, conditions: 100 nM TMPRSS2; area under the binding response curve; read off a plot

Going from “human TMPRSS2 ectodomain harboring S441, the DS mutation, SUMO and the N249 glycan (self-activating; wildtype of Figure 4C) (from UniProt O15393) A468P” to “human TMPRSS2 ectodomain harboring S441, the DS mutation, SUMO and the N249 glycan (self-activating; wildtype of Figure 4C) (from UniProt O15393) D417N”, the percent of parent falls from 95 % WT to 15 % WT.

First: human TMPRSS2 ectodomain harboring S441, the DS mutation, SUMO and the N249 glycan (self-activating; wildtype of Figure 4C) (from UniProt O15393) K340D
Second: human TMPRSS2 ectodomain harboring S441, the DS mutation, SUMO and the N249 glycan (self-activating; wildtype of Figure 4C) (from UniProt O15393) L419A
The percent of parent of the first is higher: 57 % WT for the first, 4.1 % WT for the second.

First: human TMPRSS2 ectodomain harboring S441, the DS mutation, SUMO and the N249 glycan (self-activating; wildtype of Figure 4C) (from UniProt O15393) L419M
Second: human TMPRSS2 ectodomain harboring S441, the DS mutation, SUMO and the N249 glycan (self-activating; wildtype of Figure 4C) (from UniProt O15393) R409K
The percent of parent of the first is lower: 51 % WT for the first, 81 % WT for the second.

Compared with “human TMPRSS2 ectodomain harboring S441, the DS mutation, SUMO and the N249 glycan (self-activating; wildtype of Figure 4C) (from UniProt O15393) R409T”, “human TMPRSS2 ectodomain harboring S441, the DS mutation, SUMO and the N249 glycan (self-activating; wildtype of Figure 4C) (from UniProt O15393) R413K” is lower in percent of parent: 79 % WT for the first, 77 % WT for the second.

Going from “human TMPRSS2 ectodomain harboring S441, the DS mutation, SUMO and the N249 glycan (self-activating; wildtype of Figure 4C) (from UniProt O15393) R413V” to “human TMPRSS2 ectodomain harboring S441, the DS mutation, SUMO and the N249 glycan (self-activating; wildtype of Figure 4C) (from UniProt O15393) R470K”, the percent of parent falls from 85 % WT to 1.6 % WT.

Compared with “human TMPRSS2 ectodomain harboring S441, the DS mutation, SUMO and the N249 glycan (self-activating; wildtype of Figure 4C) (from UniProt O15393) S412N”, “human TMPRSS2 ectodomain harboring S441, the DS mutation, SUMO and the N249 glycan (self-activating; wildtype of Figure 4C) (from UniProt O15393) S412N; Y469L” is lower in percent of parent: 110 % WT for the first, 81 % WT for the second.

Compared with “human TMPRSS2 ectodomain harboring S441, the DS mutation, SUMO and the N249 glycan (self-activating; wildtype of Figure 4C) (from UniProt O15393) S463F”, “human TMPRSS2 ectodomain harboring S441, the DS mutation, SUMO and the N249 glycan (self-activating; wildtype of Figure 4C) (from UniProt O15393) S463T” is higher in percent of parent: 1.6 % WT for the first, 2 % WT for the second.

Compared with “human TMPRSS2 ectodomain harboring S441, the DS mutation, SUMO and the N249 glycan (self-activating; wildtype of Figure 4C) (from UniProt O15393) S463Y”, “human TMPRSS2 ectodomain harboring S441, the DS mutation, SUMO and the N249 glycan (self-activating; wildtype of Figure 4C) (from UniProt O15393) T341S” is higher in percent of parent: 1.5 % WT for the first, 85 % WT for the second.

First: human TMPRSS2 ectodomain harboring S441, the DS mutation, SUMO and the N249 glycan (self-activating; wildtype of Figure 4C) (from UniProt O15393) V415I
Second: human TMPRSS2 ectodomain harboring S441, the DS mutation, SUMO and the N249 glycan (self-activating; wildtype of Figure 4C) (from UniProt O15393) Y414L
The percent of parent of the first is higher: 71 % WT for the first, 2.5 % WT for the second.

First: human TMPRSS2 ectodomain harboring S441, the DS mutation, SUMO and the N249 glycan (self-activating; wildtype of Figure 4C) (from UniProt O15393) Y414R
Second: human TMPRSS2 ectodomain harboring S441, the DS mutation, SUMO and the N249 glycan (self-activating; wildtype of Figure 4C) (from UniProt O15393) Y414S
The percent of parent of the first is lower: 3.9 % WT for the first, 28 % WT for the second.

First: human TMPRSS2 ectodomain harboring S441, the DS mutation, SUMO and the N249 glycan (self-activating; wildtype of Figure 4C) (from UniProt O15393) Y469L
Second: human TMPRSS2 ectodomain harboring S441, the DS mutation, SUMO and the N249 glycan (self-activating; wildtype of Figure 4C) (from UniProt O15393) Y469N
The percent of parent of the first is higher: 130 % WT for the first, 10 % WT for the second.

Same assay, conditions: 100 nM TMPRSS2 mutants for 200 seconds followed by dissociation for 400 seconds; RBD on SA biosensors; value read at 200 s; parent: est. 0.50; read off a plot

Going from “human TMPRSS2 ectodomain with S441 and the C379-T447C disulfide bond (wildtype of Figure 2F) (from UniProt O15393) R470A” to “human TMPRSS2 ectodomain with S441 and the C379-T447C disulfide bond (wildtype of Figure 2F) (from UniProt O15393) W461A”, the response falls from 0.14 nm to 0 nm.

Going from “human TMPRSS2 ectodomain with S441 and the C379-T447C disulfide bond (wildtype of Figure 2F) (from UniProt O15393) Y414A” to “human TMPRSS2 ectodomain with S441 and the C379-T447C disulfide bond (wildtype of Figure 2F) (from UniProt O15393) Y469A”, the response rises from 0.1 nm to 0.36 nm.

Each substance was assayed against cleaved human TMPRSS2 ectodomain harboring the S441A residue substitution and a C379-T447C disulfide bond (UniProt O15393) (assay: BLI). Settings: 100 nM TMPRSS2 S441A for 200 seconds followed by dissociation for 400 seconds; RBD on SA biosensors; value read at 200 s; parent: est. 0.53; read off a plot.

First: HKU1 isolate N1 (genotype A) RBD, wildtype, biotinylated (avi tag) (from UniProt Q5MQD0) E505A
Second: HKU1 isolate N1 (genotype A) RBD, wildtype, biotinylated (avi tag) (from UniProt Q5MQD0) H488A
The response of the first is higher: 0.36 nm for the first, 0.18 nm for the second.

Going from “HKU1 isolate N1 (genotype A) RBD, wildtype, biotinylated (avi tag) (from UniProt Q5MQD0) L510A” to “HKU1 isolate N1 (genotype A) RBD, wildtype, biotinylated (avi tag) (from UniProt Q5MQD0) R517A”, the response rises from 0 nm to 0.022 nm.

First: HKU1 isolate N1 (genotype A) RBD, wildtype, biotinylated (avi tag) (from UniProt Q5MQD0) V509A
Second: HKU1 isolate N1 (genotype A) RBD, wildtype, biotinylated (avi tag) (from UniProt Q5MQD0) W515A
The response of the first is higher: 0.1 nm for the first, 0 nm for the second.

With “HKU1 isolate N1 (genotype A) RBD, wildtype, biotinylated (avi tag) (from UniProt Q5MQD0) Y528A” the response was 0.11 nm.

What follows are substances tested against human TMPRSS2 ectodomain harboring S441, the DS mutation, SUMO and the N249 glycan (self-activating; wildtype of Figure 4C) (human) (UniProt O15393) (assay: enzyme inhibition kinetics (peptidase assay, competitive inhibition fit); 5 nM TMPRSS2 with serial dilutions of Boc-QAR-AMC substrate in the presence of 215, 72 or 24 nM HKU1 RBD, 22 °C; TMPRSS2 incubated 2 minutes with the RBD before substrate). Settings: not given.

“HKU1 isolate N1 (genotype A) RBD, wildtype, without avi tag (from UniProt Q5MQD0 320-614) (domain or fragment)” gave a Ki of 38 nM.
